{"source": "patent US20050164323A1", "about": "“Methods of treating asthma” (Wyeth, priority 2003, published 2005)", "proteins": {"B1": {"name": "PKC-θ KD (Homo sapiens) (protein)", "chain": "MGPELNKERPSLQIKLKIEDFILHKMLGKGSFGKVFLAEFKKTNQFFAIKALKKDVVLMDDDVECTMVEKRVLSLAWEHPFLTHMFCTFQTKENLFFVMEYLNGGDLMYHIQSCHKFDLSRATFYAAEIILGLQFLHSKGIVYRDLKLDNILLDKDGHIKIADFGMCKENMLGDAKTNTFCGTPDYIAPEILLGQKYNHSVDWWSFGVLLYEMLIGQSPFHGQDEEELFHSIRMDNPFYPRWLEKEAKDLLVKLFVREPEKRLGVRGDIRQHPLFREINWEELERKEIDPPFRPKVKSPFDCSNFDKEFLNEKPRLSFADRALINSMDQNMFRNFSFMNPGMERLISHHHHHH", "notes": "PKC-θ KD (amino acid residues 362 to 706) was cloned into a pET16b expression vector; hexa-histidine (C); Met-Gly (non-native N-terminal residues) (N); made in house; host or cells: E. coli BL21-DE3 (pET16b)"}}, "key": {"[1]": {"substrate": "Nc1ncnc2c1ncn2[C@@H]1O[C@H](COP(=O)(O)OP(=O)(O)OP(=O)(O)O)[C@@H](O)[C@H]1O", "assay": "purified protein, by the assay type", "details": "pH 7.5, 25.0 °C"}, "[2]": {"substrate": "CC(C)C[C@H](NC(=O)[C@H](CO)NC(=O)CNC(=O)[C@H](CCCCN)NC(=O)[C@H](CCCNC(=N)N)NC(=O)[C@H](C)NC(=O)[C@@H](N)Cc1ccccc1)C(=O)N[C@@H](CCCNC(=N)N)C(=O)N[C@@H](CCC(N)=O)C(=O)O", "assay": "coupled PK/LDH assay: steady-state kinetics, product and dead-end inhibition of PKC-θ KD", "assay_type": "biochemical, human", "details": "other: varied peptide substrate, saturating ATP, pH 7.5"}}, "data": [{"protein": "B1", "values": [{"measurement": "Km", "setting": "[1]; other: 0 mM NaCl", "result": 25, "unit": "µM"}, {"measurement": "Km", "setting": "[1]; other: initial velocity with peptide 1, 625 mM NaCl", "result": "321 ± 19", "unit": "µM"}, {"measurement": "Km", "setting": "[1]; other: initial velocity, varied ATP vs peptide 3, 100 mM NaCl", "result": "118 ± 17", "unit": "µM"}, {"measurement": "kcat/Km", "setting": "[2]", "result": "2.7e+06", "unit": "M⁻¹ s⁻¹"}]}]}
